Laboratory results reported in article PMC6908751.
Read-outs that look alike come from different tables or passages of the source.

Key:
[1] = target: Sh2 N9 Y169aH NA ectodomain (stabilized tetramer) (influenza A virus A/Shanghai/02/2013 (H7N9)); test: crystal structure
[2] = target: Sh2 N9 Y169aH NA ectodomain (stabilized tetramer) (influenza A virus A/Shanghai/02/2013 (H7N9))

Sh2 N9 Y169aH NA ectodomain (stabilized tetramer) (domain or fragment)
stoichiometry N [1]: 4 | stoichiometry N [2]: 4
